What was measured:
Human SLIT2-N = molecular target: T1, Human SLIT2-N (human, UniProt O94813 31-1121, limits assumed); test: flow cytometry, AF647-labelled ROBO2-Fc 2.2 on HEK293 cells overexpressing human SLIT2-N (FIG. 5)
T1 construct: domain: SLIT2-N (N terminal fragment); Soluble analyte in SPR, d2-labelled in HTRF, overexpressed on HEK293 cells in flow cytometry; also called human SLIT2-N (N terminal fragment)
T1 sequence (looked up): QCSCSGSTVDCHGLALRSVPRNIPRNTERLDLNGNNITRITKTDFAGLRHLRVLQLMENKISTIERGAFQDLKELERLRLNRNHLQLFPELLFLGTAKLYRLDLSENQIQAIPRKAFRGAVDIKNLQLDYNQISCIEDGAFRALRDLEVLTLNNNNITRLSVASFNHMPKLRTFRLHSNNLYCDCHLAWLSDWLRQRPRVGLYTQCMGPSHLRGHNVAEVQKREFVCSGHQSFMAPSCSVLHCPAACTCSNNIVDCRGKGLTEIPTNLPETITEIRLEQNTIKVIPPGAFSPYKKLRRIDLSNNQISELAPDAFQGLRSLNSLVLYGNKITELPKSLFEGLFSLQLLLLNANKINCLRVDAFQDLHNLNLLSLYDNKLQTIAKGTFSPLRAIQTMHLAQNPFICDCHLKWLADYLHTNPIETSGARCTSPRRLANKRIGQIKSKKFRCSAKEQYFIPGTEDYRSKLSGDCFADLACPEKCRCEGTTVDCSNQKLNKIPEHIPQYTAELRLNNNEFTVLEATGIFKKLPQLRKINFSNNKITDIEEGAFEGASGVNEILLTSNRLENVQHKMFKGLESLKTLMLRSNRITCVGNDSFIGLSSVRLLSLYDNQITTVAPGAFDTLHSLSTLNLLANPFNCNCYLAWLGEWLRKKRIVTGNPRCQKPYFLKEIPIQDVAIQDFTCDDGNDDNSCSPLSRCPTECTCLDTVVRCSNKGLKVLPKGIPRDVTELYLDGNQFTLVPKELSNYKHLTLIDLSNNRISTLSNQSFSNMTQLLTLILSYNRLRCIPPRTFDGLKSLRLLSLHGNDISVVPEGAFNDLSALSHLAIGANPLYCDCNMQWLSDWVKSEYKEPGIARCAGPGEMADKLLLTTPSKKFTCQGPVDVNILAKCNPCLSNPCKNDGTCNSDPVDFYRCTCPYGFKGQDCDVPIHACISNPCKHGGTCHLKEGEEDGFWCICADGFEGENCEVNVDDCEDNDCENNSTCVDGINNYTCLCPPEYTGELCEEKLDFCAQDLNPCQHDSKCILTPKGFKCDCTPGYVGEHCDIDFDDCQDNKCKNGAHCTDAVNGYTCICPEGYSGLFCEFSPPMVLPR
Method: After incubation, 150 μL of FACS buffer was added per well to wash the cells. After washing, cells were resuspended in buffer for data acquisition on a Fortessa Flow Cytometer.

Human SLIT3-N = molecular target: T2, Human SLIT3-N (human, UniProt O75094 34-1119, limits assumed); test: HTRF competition: d2-labelled human SLIT3-N binding to human ROBO2 on HEK293 cells; geometric mean, n=3
T2 construct: domain: SLIT3-N; d2-labelled in the HTRF assay
T2 sequence (looked up): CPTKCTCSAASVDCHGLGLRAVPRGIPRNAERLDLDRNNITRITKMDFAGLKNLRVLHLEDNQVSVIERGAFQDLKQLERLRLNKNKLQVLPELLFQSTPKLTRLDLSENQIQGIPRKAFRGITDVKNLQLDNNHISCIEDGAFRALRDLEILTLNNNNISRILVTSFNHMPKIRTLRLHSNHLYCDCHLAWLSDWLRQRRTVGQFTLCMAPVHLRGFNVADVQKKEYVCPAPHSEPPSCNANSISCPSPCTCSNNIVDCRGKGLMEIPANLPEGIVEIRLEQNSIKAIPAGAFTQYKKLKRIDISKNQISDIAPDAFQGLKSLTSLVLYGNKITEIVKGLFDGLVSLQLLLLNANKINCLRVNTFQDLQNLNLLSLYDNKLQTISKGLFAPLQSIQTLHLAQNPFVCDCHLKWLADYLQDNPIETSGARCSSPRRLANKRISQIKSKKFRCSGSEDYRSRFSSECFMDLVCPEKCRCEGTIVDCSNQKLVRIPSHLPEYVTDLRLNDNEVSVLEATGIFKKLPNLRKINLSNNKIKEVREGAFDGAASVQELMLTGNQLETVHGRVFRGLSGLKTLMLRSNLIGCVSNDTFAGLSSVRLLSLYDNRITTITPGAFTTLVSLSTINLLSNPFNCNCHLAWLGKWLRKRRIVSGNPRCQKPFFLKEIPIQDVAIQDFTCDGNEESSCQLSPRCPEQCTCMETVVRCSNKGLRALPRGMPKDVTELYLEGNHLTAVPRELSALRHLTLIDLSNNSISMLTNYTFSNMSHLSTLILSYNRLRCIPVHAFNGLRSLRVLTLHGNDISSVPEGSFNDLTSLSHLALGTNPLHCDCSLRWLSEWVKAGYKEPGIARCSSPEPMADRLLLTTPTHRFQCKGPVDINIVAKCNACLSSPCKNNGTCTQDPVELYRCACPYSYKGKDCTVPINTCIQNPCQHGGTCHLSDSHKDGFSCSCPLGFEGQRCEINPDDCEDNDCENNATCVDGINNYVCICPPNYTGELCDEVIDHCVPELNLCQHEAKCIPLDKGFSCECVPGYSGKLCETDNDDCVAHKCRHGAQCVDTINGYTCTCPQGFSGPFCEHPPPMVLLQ
Method: After incubation, fluorescence at 665 nm and 620 nm was measured on an Envision multilabel plate reader. The HTRF Ratio was calculated as follows: fluorescence at 665 nm/fluorescence at 620 nm×10,000. […] The IC₅₀ for each SLITx-N was determined using an 11-point, 4-fold dilution series with a top concentration of 4000 nM.

B1: ROBO2-Fc 2.2 (Fc fusion)
chain: SRLRQEDFPPRIVEHPSDVIVSKGEPTTLNCKAEGRPTPTIEWYKDGERVETDKDDPRSHRMLLPSGSLFFLRIVHGRRSKPDEGSYVCVARNYLGEAVSRNASLEVALLRDDFRQNPTDVVVAAGEPAILECQPPRGHPEPTIYWKKDKVRIDDKEERISIRGGKLMISNTRKSDAGMYTCVGTNMVGERDSDPAELTVFERGGSGGSEPKSSDKTHTCPPCPAPEAAGAPSVFLFPPKPKDTLMISRTPEVTCVVVDVSHEDPEVKFNWYVDGVEVHNAKTKPREEQYNSTYRVVSVLTVLHQDWLNGKEYKCKVSNKALPAPIEKTISKAKGQPREPQVYTLPPSREEMTKNQVSLTCLVKGFYPSDIAVEWESNGQPENNYKTTPPVLDSDGSFFLYSKLTVDKSRWQQGNVFSCSVMHEALHNHYTQKSLSLSPG
notes: Labelled with Alexa Fluor 647 in the flow cytometry assay; also called ROBO-Fc 2.2; ROBO2-Fc 2.2-AF647
How did the EC50 (Human SLIT2-N) turn out when B1 was run?
Its EC50 is 9 nM.

And the IC50 (Human SLIT3-N)?
Its IC50 is 5.1 nM.
